What was measured:
PALB2 = target: T1, PALB2 (UniProt Q86YC2 1-1186); assay: EMSA
T1 sequence: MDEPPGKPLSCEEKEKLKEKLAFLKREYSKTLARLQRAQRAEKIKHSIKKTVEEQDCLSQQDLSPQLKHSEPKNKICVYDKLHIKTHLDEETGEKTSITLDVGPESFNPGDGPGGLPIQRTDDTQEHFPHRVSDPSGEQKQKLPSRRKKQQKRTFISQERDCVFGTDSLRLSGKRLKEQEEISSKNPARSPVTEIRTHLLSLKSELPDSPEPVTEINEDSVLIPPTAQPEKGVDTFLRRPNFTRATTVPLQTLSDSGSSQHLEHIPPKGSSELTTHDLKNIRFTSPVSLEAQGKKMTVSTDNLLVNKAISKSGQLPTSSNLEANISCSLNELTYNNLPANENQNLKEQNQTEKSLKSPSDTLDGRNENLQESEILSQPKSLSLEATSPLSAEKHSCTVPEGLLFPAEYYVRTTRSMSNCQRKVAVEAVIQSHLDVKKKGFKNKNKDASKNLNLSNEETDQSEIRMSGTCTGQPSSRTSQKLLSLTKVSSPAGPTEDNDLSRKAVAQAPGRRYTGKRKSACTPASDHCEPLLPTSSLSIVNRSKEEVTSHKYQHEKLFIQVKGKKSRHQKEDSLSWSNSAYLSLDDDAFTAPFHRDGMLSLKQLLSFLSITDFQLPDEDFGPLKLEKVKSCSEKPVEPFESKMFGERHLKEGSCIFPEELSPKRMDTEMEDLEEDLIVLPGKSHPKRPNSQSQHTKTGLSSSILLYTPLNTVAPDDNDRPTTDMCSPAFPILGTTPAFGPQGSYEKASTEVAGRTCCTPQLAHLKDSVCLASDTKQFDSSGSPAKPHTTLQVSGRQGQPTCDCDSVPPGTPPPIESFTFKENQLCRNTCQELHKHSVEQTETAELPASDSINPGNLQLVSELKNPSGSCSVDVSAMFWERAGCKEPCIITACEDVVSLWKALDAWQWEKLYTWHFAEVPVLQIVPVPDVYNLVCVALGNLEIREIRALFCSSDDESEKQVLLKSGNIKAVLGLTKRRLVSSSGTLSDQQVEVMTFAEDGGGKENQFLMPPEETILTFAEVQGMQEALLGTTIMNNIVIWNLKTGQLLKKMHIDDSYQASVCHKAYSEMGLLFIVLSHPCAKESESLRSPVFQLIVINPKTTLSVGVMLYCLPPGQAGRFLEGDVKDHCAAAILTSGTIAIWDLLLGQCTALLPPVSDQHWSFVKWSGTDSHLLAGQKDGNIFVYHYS

PALB2Δ1-40 = target: T2, PALB2Δ1-40 (UniProt Q86YC2 41-1186, del1-40); assay: EMSA
T2 sequence: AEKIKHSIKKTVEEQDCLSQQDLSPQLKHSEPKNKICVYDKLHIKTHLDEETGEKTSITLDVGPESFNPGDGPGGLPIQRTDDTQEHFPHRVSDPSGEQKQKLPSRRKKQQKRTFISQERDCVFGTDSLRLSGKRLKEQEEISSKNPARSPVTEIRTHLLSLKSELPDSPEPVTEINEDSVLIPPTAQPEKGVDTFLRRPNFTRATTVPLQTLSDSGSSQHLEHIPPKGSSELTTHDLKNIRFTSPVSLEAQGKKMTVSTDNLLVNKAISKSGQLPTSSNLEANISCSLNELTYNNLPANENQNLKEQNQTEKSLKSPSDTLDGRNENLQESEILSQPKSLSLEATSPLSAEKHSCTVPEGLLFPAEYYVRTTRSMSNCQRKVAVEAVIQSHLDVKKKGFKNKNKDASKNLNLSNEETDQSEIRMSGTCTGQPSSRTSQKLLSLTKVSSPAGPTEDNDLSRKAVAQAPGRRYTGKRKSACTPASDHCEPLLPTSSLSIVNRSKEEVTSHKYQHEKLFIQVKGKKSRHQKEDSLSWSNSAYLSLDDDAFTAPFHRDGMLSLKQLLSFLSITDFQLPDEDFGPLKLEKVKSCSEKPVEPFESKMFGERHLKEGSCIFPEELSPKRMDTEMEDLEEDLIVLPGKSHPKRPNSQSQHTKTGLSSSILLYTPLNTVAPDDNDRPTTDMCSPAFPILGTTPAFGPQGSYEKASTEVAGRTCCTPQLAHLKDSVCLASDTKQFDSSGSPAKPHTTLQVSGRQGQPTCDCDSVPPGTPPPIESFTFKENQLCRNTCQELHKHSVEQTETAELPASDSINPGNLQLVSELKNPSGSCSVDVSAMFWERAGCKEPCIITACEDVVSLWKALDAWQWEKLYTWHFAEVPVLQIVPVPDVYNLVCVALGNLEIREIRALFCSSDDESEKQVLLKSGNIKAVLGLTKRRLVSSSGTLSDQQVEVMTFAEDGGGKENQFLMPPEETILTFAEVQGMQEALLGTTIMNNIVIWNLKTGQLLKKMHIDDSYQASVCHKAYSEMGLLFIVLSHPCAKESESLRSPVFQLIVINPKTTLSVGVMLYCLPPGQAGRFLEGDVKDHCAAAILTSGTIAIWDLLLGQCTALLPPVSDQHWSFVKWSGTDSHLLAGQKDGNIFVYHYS

B1: 60 nt ssDNA (ssDNA)
DNA: GGGTGAACCTGCAGGTGGGCAAAGATGTCCTAGCAATGTAATCGTCAAGCTTTATGCCGT
PALB2
  binding result: binds
PALB2Δ1-40
  binding signal: ~5 fold stronger affinity than PALB2
